The target in test [1] is T1, human Fibroblast Activation Protein (FAP) (human, UniProt Q12884 1-760).
T1 construct: on 3T3-huFAP or MV3 cells in the functional assays; also called huFAP; 3T3-huFAP cells (clone 19)
Kind of test: flow cytometry, 3T3-huFAP cells, PE anti-human IgG secondary, MFI.
Experimental: (§1) Binding was assessed by flow cytometry with a FACS Fortessa (BD, Software FACS Diva). Binding curves were obtained using GraphPadPrism6.

Another test addresses T2, human CD28 (human, UniProt P10747 19-220).
T2 construct: on primary human T cells in the functional assays; also called huCD28; CHO cells expressing human CD28
Put plainly: flow cytometry, CHO cells stably overexpressing human CD28, monovalent one-armed IgG from supernatant, PE anti-human IgG secondary, MFI.

Experimental for human CD28: as §1

B1: Molecule E: FAP(4B9)-CD28(SA) 1+2 format (bispecific antibody, human IgG1, kappa, L234A L235A)
light: not shown
heavy 1: not shown
heavy 2: QVQLVQSGAEVKKPGASVKVSCKASGYTFTSYYIHWVRQAPGQGLEWIGCIYPGNVNTNYNEKFKDRATLTVDTSISTAYMELSRLRSDDTAVYFCTRSHYGLDWNFDVWGQGTTVTVSSASTKGPSVFPLAPSSKSTSGGTAALGCLVKDYFPEPVTVSWNSGALTSGVHTFPAVLQSSGLYSLSSVVTVPSSSLGTQTYICNVNHKPSNTKVDKKVEPKSCDKTHTCPPCPAPEAAGGPSVFLFPPKPKDTLMISRTPEVTCVVVDVSHEDPEVKFNWYVDGVEVHNAKTKPREEQYNSTYRVVSVLTVLHQDWLNGKEYKCKVSNKALGAPIEKTISKAKGQPREPQVCTLPPSRDELTKNQVSLSCAVKGFYPSDIAVEWESNGQPENNYKTTPPVLDSDGSFFLVSKLTVDKSRWQQGNVFSCSVMHEALHNHYTQKSLSLSPGGGGGSGGGGSGGGGSGGGGSEIVLTQSPGTLSLSPGERATLSCRASQSVTSSYLAWYQQKPGQAPRLLINVGSRRATGIPDRFSGSGSGTDFTLTISRLEPEDFAVYYCQQGIMLPPTFGQGTKVEIK
notes: bivalent anti-CD28(SA), monovalent anti-FAP (VH on knob chain, VL on hole chain), huIgG1 PG-LALA; also called P1AD9011; FAP-CD28(SA) 1+2
Turning to B1, the binding result in test [1] is “binds”.

B2: CD28(SA)_variant_28 (antibody, human IgG1, kappa, L234A L235A)
heavy: not shown
light: not shown
chain: DKTHTCPPCPAPEAAGGPSVFLFPPKPKDTLMISRTPEVTCVVVDVSHEDPEVKFNWYVDGVEVHNAKTKPREEQYNSTYRVVSVLTVLHQDWLNGKEYKCKVSNKALGAPIEKTISKAKGQPREPQVCTLPPSRDELTKNQVSLSCAVKGFYPSDIAVEWESNGQPENNYKTTPPVLDSDGSFFLVSKLTVDKSRWQQGNVFSCSVMHEALHNRFTQKSLSLSP
notes: monovalent one-armed IgG-like construct; from supernatant; also called P1AE3084
On to B2, for which the binding result in the test with human CD28 is reported as “binds”.

Source of the values: patent US20200223925A1 (Hoffmann-La Roche, published 2020).
